Reference: publication PMC5484391 (Cell, 2017)

Target: the molecule itself
Assay: cryo-EM structure

B1: hERGTs (human hERG, truncated construct lacking residues 141–380 and 871–1005) (natural protein, UniProt Q12809 1-1159, looked up)
chain: MPVRRGHVAPQNTFLDTIIRKFEGQSRKFIIANARVENCAVIYCNDGFCELCGYSRAEVMQRPCTCDFLHGPRTQRRAAAQIAQALLGAEERKVEIAFYRKDGSCFLCLVDVVPVKNEDGAVIMFILNFEVVMEKDMVGSGADVLPEYKLQAPRIHRWTILHYSPFKAVWDWLILLLVIYTAVFTPYSAAFLLKETEEGPPATECGYACQPLAVVDLIVDIMFIVDILINFRTTYVNANEEVVSHPGRIAVHYFKGWFLIDMVAAIPFDLLIFGSGSEELIGLLKTARLLRLVRVARKLDRYSEYGAAVLFLLMCTFALIAHWLACIWYAIGNMEQPHMDSRIGWLHNLGDQIGKPYNSSGLGGPSIKDKYVTALYFTFSSLTSVGFGNVSPNTNSEKIFSICVMLIGSLMYASIFGNVSAIIQRLYSGTARYHTQMLRVREFIRFHQIPNPLRQRLEEYFQHAWSYTNGIDMNAVLKGFPECLQADICLHLNRSLLQHCKPFRGATKGCLRALAMKFKTTHAPPGDTLVHAGDLLTALYFISRGSIEILRGDVVVAILGKNDIFGEPLNLYARPGKSNGDVRALTYCDLHKIHRDDLLEVLDMYPEFSDHFWSSLEITFNLRDTNMIPGGRQYQELPRCPAPTPSLLNIPLSSPGRRPRGDVESRLDALQRQLNRLETRLSADMATVLQLLQRQMTLVPPAYSAVTTPGPGPTSTSPLLPVSPLPTLTLDSLSQVSQFMACEELPPGAPELPQEGPTRRLSLPGQLGALTSQPLHRHGSDPGS
binding result: binds
